# Results from US12084522B2, “Peptides, combination of peptides, and cell based medicaments for use in immunotherapy against urinary bladder cancer and other cancers” (Immatics Biotechnologies GmbH, priority 2016, dated 2024).
# Target: HLA-A*02:01 (Homo sapiens, UniProt P04439, D140Y/D185E/D98H/E176V/E277Q/G131W/G231S/I119V/I121R/I166T/I218V/L300P/L318F/N151K/N90K/P208A/P217A/Q86G/Q94H/R138H/R169H/T345S)
# Assay: MHC binding assay (UV-ligand exchange, β2m ELISA, peptide exchange yield)
# Settings: binding to HLA-A*02:01 ranged by peptide exchange yield (UV-ligand exchange, β2m ELISA)
# Source text: Candidate peptides for T cell based therapies according to the present invention were further tested for their MHC binding capacity (affinity). The individual peptide-MHC complexes were produced by UV-ligand exchange, where a UV-sensitive peptide is cleaved upon UV-irradiation, and exchanged with the peptide of interest as analyzed. Only peptide candidates that can effectively bind and stabilize the peptide-receptive MHC molecules prevent dissociation of the MHC complexes. To determine the yield of the exchange reaction, an ELISA was performed based on the detection of the light chain (β2 m) of stabilized MHC complexes. The assay was performed as generally described in Rodenko et al. (Rodenko et al., 2006).
# 96 well MAXISorp plates (NUNC) were coated over night with 2 μg/ml streptavidin in PBS at room temperature, washed 4× and blocked forth at 37° C. in 2% BSA containing blocking buffer. Refolded HLA-A*02:01/MLA-001 monomers served as standards, covering the range of 15-500 ng/ml. Peptide-MHC monomers of the UV-exchange reaction were diluted 100 fold in blocking buffer. Samples were incubated for 1 h at 37° C., washed four times, incubated with 2 ug/ml HRP conjugated anti-β2 m for 1 h at 37° C., washed again and detected with TMB solution that is stopped with […]. Absorption was measured at 450 nm. Candidate peptides that show a high exchange yield (preferably higher than 50%, most preferred higher than 75%) are generally preferred for a generation and production of antibodies or fragments thereof, and/or T cell receptors or fragments thereof, as they show sufficient avidity to the MHC molecules and prevent dissociation of the MHC complexes.
row,Substance,Peptide exchange
1,1 (ILLQASVQV; listed as Homo sapiens) [compound 1],++++ (>75% = ++++)
2,2 (GLLKAYSIRTA; listed as Homo sapiens) [compound 2],+++ (>50 = +++)
3,3 (YLDEIPPKFSM; listed as Homo sapiens) [compound 3],++++ (>75% = ++++)
4,7 (QMFEGQILDV; listed as Homo sapiens) [compound 7],+++ (>50 = +++)
5,8 (ALSFSSSAGPGLLKA; listed as Homo sapiens) [compound 8],+++ (>50 = +++)
6,11 (AMAELRVVV; listed as Homo sapiens) [compound 11],++++ (>75% = ++++)
7,12 (GVALTVTGV; listed as Homo sapiens) [compound 12],++++ (>75% = ++++)
8,13 (FLEEKEQAAL; listed as Homo sapiens) [compound 13],+++ (>50 = +++)
9,18 (SIAAYNPVV; listed as Homo sapiens) [compound 18],++++ (>75% = ++++)
10,19 (SLATTLTKI; listed as Homo sapiens) [compound 19],+++ (>50 = +++)
11,20 (YLPDSLTQL; listed as Homo sapiens) [compound 20],++++ (>75% = ++++)
12,21 (TLIEDDALNGA; listed as Homo sapiens) [compound 21],+++ (>50 = +++)
13,25 (SLDSSGFSL; listed as Homo sapiens) [compound 25],+++ (>50 = +++)
14,26 (GLALLYSGV; listed as Homo sapiens) [compound 26],++++ (>75% = ++++)
15,28 (GLIDSLMAYV; listed as Homo sapiens) [compound 28],++++ (>75% = ++++)
16,31 (SLFDGIATGL; listed as Homo sapiens) [compound 31],++++ (>75% = ++++)
17,32 (YQAPDIDVQL; listed as Homo sapiens) [compound 32],+++ (>50 = +++)
18,33 (VLFGEITRL; listed as Homo sapiens) [compound 33],+++ (>50 = +++)
19,34 (ALLDEQQVNV; listed as Homo sapiens) [compound 34],+++ (>50 = +++)
20,35 (KLPEPPPLA; listed as Homo sapiens) [compound 35],+++ (>50 = +++)
21,36 (ALWDEFNQL; listed as Homo sapiens) [compound 36],+++ (>50 = +++)
22,37 (ILSAILVHL; listed as Homo sapiens) [compound 37],+++ (>50 = +++)
23,38 (TLTSIIVAV; listed as Homo sapiens) [compound 38],+++ (>50 = +++)
24,39 (AMASHLTST; listed as Homo sapiens) [compound 39],+++ (>50 = +++)
25,40 (VIADRVVTV; listed as Homo sapiens) [compound 40],+++ (>50 = +++)

row,Substance,Peptide exchange
1,42 (FLIDASQRV; listed as Homo sapiens) [compound 42],+++ (>50 = +++)
2,43 (FLIESKLLSL; listed as Homo sapiens) [compound 43],++++ (>75% = ++++)
3,44 (GLAQDPKSLQL; listed as Homo sapiens) [compound 44],+++ (>50 = +++)
4,45 (IIDSSPTAL; listed as Homo sapiens) [compound 45],++ (>20% = ++)
5,47 (VLMDDTDPL; listed as Homo sapiens) [compound 47],+++ (>50 = +++)
6,48 (VLMDDTDPLV; listed as Homo sapiens) [compound 48],+++ (>50 = +++)
7,49 (SLIGGTNFV; listed as Homo sapiens) [compound 49],+++ (>50 = +++)
8,52 (SLATLEGIQL; listed as Homo sapiens) [compound 52],+++ (>50 = +++)
9,54 (ALNDEINFL; listed as Homo sapiens) [compound 54],+++ (>50 = +++)
10,55 (KLLETKWTL; listed as Homo sapiens) [compound 55],++++ (>75% = ++++)
11,56 (ILLRDLPTL; listed as Homo sapiens) [compound 56],+++ (>50 = +++)
12,58 (GLDSSVNVQGSVL; listed as Homo sapiens) [compound 58],+++ (>50 = +++)
13,62 (GQLDFSEFL; listed as Homo sapiens) [compound 62],+++ (>50 = +++)
14,63 (LLAGLLVGV; listed as Homo sapiens) [compound 63],+++ (>50 = +++)
15,64 (GLLSQGSPL; listed as Homo sapiens) [compound 64],+++ (>50 = +++)
16,65 (IITDLLRSV; listed as Homo sapiens) [compound 65],++++ (>75% = ++++)
17,66 (SLWEENQAL; listed as Homo sapiens) [compound 66],+++ (>50 = +++)
18,67 (FLTPPLLSV; listed as Homo sapiens) [compound 67],++++ (>75% = ++++)
19,68 (TMIVSLAAV; listed as Homo sapiens) [compound 68],+++ (>50 = +++)
20,69 (QIWDKILSV; listed as Homo sapiens) [compound 69],+++ (>50 = +++)
21,70 (KLAEISLGV; listed as Homo sapiens) [compound 70],++ (>20% = ++)
22,71 (LLSEDFVSV; listed as Homo sapiens) [compound 71],++ (>20% = ++)
23,72 (SLFTGLRSI; listed as Homo sapiens) [compound 72],+++ (>50 = +++)
24,73 (VLKVFLENV; listed as Homo sapiens) [compound 73],++++ (>75% = ++++)

# The remaining lines, values ahead:
row,Peptide exchange,Substance
1,+++ (>50 = +++),74 (LLQEGEVYSA; listed as Homo sapiens) [compound 74]
2,+++ (>50 = +++),76 (AVVSSVNTV; listed as Homo sapiens) [compound 76]
3,++++ (>75% = ++++),77 (KVFGGFQVV; listed as Homo sapiens) [compound 77]
4,++++ (>75% = ++++),78 (FIPDFAVAI; listed as Homo sapiens) [compound 78]
5,+++ (>50 = +++),79 (FLDPATPRV; listed as Homo sapiens) [compound 79]
6,+++ (>50 = +++),80 (ILLDTPLFLL; listed as Homo sapiens) [compound 80]
7,+++ (>50 = +++),81 (SLDKGTLYI; listed as Homo sapiens) [compound 81]
8,+++ (>50 = +++),82 (NLHNSYYSV; listed as Homo sapiens) [compound 82]
9,++++ (>75% = ++++),83 (VILDKYYFL; listed as Homo sapiens) [compound 83]
10,+++ (>50 = +++),84 (ALDPASISV; listed as Homo sapiens) [compound 84]
11,+++ (>50 = +++),85 (HLLDSKVPSV; listed as Homo sapiens) [compound 85]
12,+++ (>50 = +++),86 (FLISLIISV; listed as Homo sapiens) [compound 86]
13,++++ (>75% = ++++),87 (RLLELLQEA; listed as Homo sapiens) [compound 87]
14,+++ (>50 = +++),88 (ALASLENHV; listed as Homo sapiens) [compound 88]
15,+++ (>50 = +++),89 (YLFPETEFI; listed as Homo sapiens) [compound 89]
16,+++ (>50 = +++),90 (GMTELYFQL; listed as Homo sapiens) [compound 90]
17,+++ (>50 = +++),91 (NLDAATYQV; listed as Homo sapiens) [compound 91]
18,+++ (>50 = +++),92 (ALLDEQQVNVLL; listed as Homo sapiens) [compound 92]
19,+++ (>50 = +++),93 (LLDLIQTKV; listed as Homo sapiens) [compound 93]
20,+++ (>50 = +++),94 (ALADGVPVAL; listed as Homo sapiens) [compound 94]
21,++++ (>75% = ++++),95 (YLIGQHVTA; listed as Homo sapiens) [compound 95]
22,+++ (>50 = +++),96 (KLTNGIWVL; listed as Homo sapiens) [compound 96]
23,+++ (>50 = +++),97 (TVGPGLLGV; listed as Homo sapiens) [compound 97]
24,+++ (>50 = +++),98 (YLIGLDPENLAL; listed as Homo sapiens) [compound 98]
25,+++ (>50 = +++),99 (ALIGDDVGL; listed as Homo sapiens) [compound 99]
